B1: library; numbered along this chain (parent)
chain: MNIQIGELAKRTACPVVTIRFYEQEGLLPPPGRSRGNFRLYGEEHVERLQFIRHCRSLDMPLSDVRTLLSYRKRPDQDCGEVNMLLDEHIRQVESRIGALLELKHHLVELREACSGARPAQSCGILQGLSDCVCDTRGTTAHPSD

Series [1] covers variants of B1. Kind of series: sfGFP reporter fluorescence (15 h) (µM FITC); higher = higher leak. To be noted: library round: Round 0; ligand: none. The method, then:
(§1)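 Cell-free (BL21 Star DE3 extract, PANOx-SP) biosensing: 1 µL Echo-assembled reactions with linear PbrR variant templates (5 nM) and pPbrR-sfGFP reporter, with 1 µM Pb (lead chloride), 30 µM Zn (zinc acetate) or no ligand; endpoint sfGFP fluorescence after 15 h at 30 °C, calibrated as µM FITC. Round 0 library (alanine scan, site saturation, combinatorial) of PbrR from Cupriavidus metallidurans; 2 biological replicates.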

In series [2] the parent is B1. Nature of the series: sfGFP reporter fluorescence (15 h) (µM FITC); higher = stronger transcriptional activation. Conditions: library round: Round 0. The method, then:
as §1

The variants in series [3] derive from B1. Nature of the series: sfGFP reporter fluorescence (15 h) (µM FITC); higher = higher leak. To be noted: library round: Round 1; ligand: none. The method, then:
(§2)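 Cell-free biosensing: 1 µL Echo-assembled CFE reactions with linear PbrR variant templates (5 nM) and pPbrR-sfGFP reporter, with 1 µM Pb, 30 µM Zn or no ligand; endpoint sfGFP fluorescence after 15 h at 30 °C calibrated as µM FITC. Round 1 ML-predicted PbrR mutants; 3 biological replicates.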

Series [4] covers variants of B1. Nature of the series: sfGFP reporter fluorescence (15 h) (µM FITC); higher = stronger transcriptional activation. Conditions: library round: Round 1. How it is done:
as §2

The values below come from the supplement of paper PMC12783771.

± gives the standard deviation of the averaged measurements.

Turning to E7G, the sfGFP reporter fluorescence in series [1] was found to be 0.05882 ± 0.00026; in series [2] (ligand: 1 µM Pb) it was 0.0755 ± 0.0042; in series [2] (ligand: 30 µM Zn), 0.626 ± 0.02.
As for G6E, the figures for the sfGFP reporter fluorescence in series [1], in series [2] (ligand: 1 µM Pb) and in series [2] (ligand: 30 µM Zn) were 0.0636 ± 0.0034, 0.0605 ± 0.0015 and 0.0625 ± 0.0034, respectively.
In the same order, the values of G6H are 0.06267 ± 0.00052, 0.0603 ± 0.00078 and 0.0698 ± 0.0029.
In the same order, the values of G6M are 0.0603 ± 0.0013, 0.0586 ± 0.001 and 0.0654 ± 0.0034.
In the case of G6C, the results for the sfGFP reporter fluorescence in series [1], in series [2] (ligand: 1 µM Pb) and in series [2] (ligand: 30 µM Zn) were 0.0601 ± 0.0026, 0.05882 ± 0.00026 and 0.0621 ± 0.0018, respectively.
In the same order, the values of G6T are 0.0594 ± 0.0021, 0.0608 ± 0.0015 and 0.0799 ± 0.0047.
In the same order, the values of G6F are 0.0592 ± 0.0018, 0.06029 ± 0.00026 and 0.0629 ± 0.00078.
For the variant G6I, the sfGFP reporter fluorescence came out at 0.05846 ± 0.00026 in series [1], 0.0585 ± 0.0023 in series [2] (ligand: 1 µM Pb) and 0.0618 ± 0.0018 in series [2] (ligand: 30 µM Zn).
In the same order, the values of G6N are 0.0607 ± 0.00078, 0.0599 ± 0.0013 and 0.0773 ± 0.0015.
In the same order, the values of G6W are 0.061 ± 0.0023, 0.06011 ± 0.00052 and 0.06212 ± 0.00026.
Turning to G6K, the values for the sfGFP reporter fluorescence in series [1], in series [2] (ligand: 1 µM Pb) and in series [2] (ligand: 30 µM Zn) were 0.0625 ± 0.0013, 0.06414 ± 0.00052 and 0.222 ± 0.0031, respectively.
For the variant G6L, the sfGFP reporter fluorescence was found to be 0.0607 ± 0.00078 in series [1], 0.06157 ± 0.00052 in series [2] (ligand: 1 µM Pb) and 0.0682 ± 0.001 in series [2] (ligand: 30 µM Zn).
As to G6D, the sfGFP reporter fluorescence turned out to be 0.06377 ± 0.00052 in series [1], 0.06047 ± 0.00052 in series [2] (ligand: 1 µM Pb) and 0.0621 ± 0.00078 in series [2] (ligand: 30 µM Zn).
Take G6P: the values for the sfGFP reporter fluorescence in series [1], in series [2] (ligand: 1 µM Pb) and in series [2] (ligand: 30 µM Zn) were 0.061 ± 0.0013, 0.0601 ± 0.0015 and 0.06084 ± 0.00052, respectively.
For G6Q, the sfGFP reporter fluorescence turned out to be 0.0592 ± 0.0023 in series [1], 0.05754 ± 0.00052 in series [2] (ligand: 1 µM Pb) and 0.0746 ± 0.0039 in series [2] (ligand: 30 µM Zn).
In the same order, the values of G6A are 0.0504 ± 0.0018, 0.0491 ± 0.00052 and 0.09016 ± 0.00052.
In the same order, the values of G6V are 0.0618 ± 0.0013, 0.0618 ± 0.0013 and 0.0651 ± 0.0013.
In the same order, the values of G6R are 0.0605 ± 0.001, 0.0632 ± 0.00078 and 0.116 ± 0.0039.
Take G6S: the sfGFP reporter fluorescence worked out at 0.0608 ± 0.0021 in series [1], 0.06853 ± 0.00052 in series [2] (ligand: 1 µM Pb) and 0.412 ± 0.027 in series [2] (ligand: 30 µM Zn).
For the variant G6Y, the results for the sfGFP reporter fluorescence in series [1], in series [2] (ligand: 1 µM Pb) and in series [2] (ligand: 30 µM Zn) were 0.0603 ± 0.0034, 0.0608 ± 0.001 and 0.066, respectively.
D131F D135A: the sfGFP reporter fluorescence worked out at 0.0667 ± 0.0016 in series [3], 0.071 ± 0.0022 in series [4] (ligand: 1 µM Pb) and 0.345 ± 0.018 in series [4] (ligand: 30 µM Zn).
In the case of D131C P143R, the figures for the sfGFP reporter fluorescence in series [3], in series [4] (ligand: 1 µM Pb) and in series [4] (ligand: 30 µM Zn) were 0.0674 ± 0.0018, 0.0812 ± 0.0024 and 0.196 ± 0.0083, respectively.
In the same order, the values of D131H D135K are 0.0669 ± 0.0015, 0.0876 ± 0.0064 and 0.579 ± 0.071.
In the same order, the values of D131H D135P are 0.0673 ± 0.0015, 0.0988 ± 0.017 and 0.455 ± 0.04.
In the case of D131H D135A, the sfGFP reporter fluorescence in series [3] is 0.065 ± 0.00092; in series [4] (ligand: 1 µM Pb), 0.0777 ± 0.0089; in series [4] (ligand: 30 µM Zn) it was 0.402 ± 0.014.
In the same order, the values of H142C P143A are 0.0676 ± 0.0022, 0.0772 ± 0.0027 and 0.384 ± 0.03.
In the same order, the values of D131M D135A are 0.0704 ± 0.005, 0.0869 ± 0.0074 and 0.573 ± 0.039.
Consider D131L D135S, for which the sfGFP reporter fluorescence amounted to 0.0691 ± 0.0011 in series [3], 0.0943 ± 0.002 in series [4] (ligand: 1 µM Pb) and 0.588 ± 0.05 in series [4] (ligand: 30 µM Zn).
Regarding D131L D135A, the sfGFP reporter fluorescence in series [3] turned out to be 0.0688 ± 0.0015; in series [4] (ligand: 1 µM Pb), 0.0969 ± 0.027; in series [4] (ligand: 30 µM Zn), 0.476 ± 0.055.
On to D135S P143W, for which the sfGFP reporter fluorescence in series [3] is 0.0694 ± 0.00085; in series [4] (ligand: 1 µM Pb), 0.0798 ± 0.0084; in series [4] (ligand: 30 µM Zn), 0.355 ± 0.051.
Consider I5A, for which the values for the sfGFP reporter fluorescence in series [1], in series [2] (ligand: 1 µM Pb) and in series [2] (ligand: 30 µM Zn) were 0.0515 ± 0.0039, 0.05186 ± 0.00026 and 0.0817 ± 0.0036, respectively.
With D131T V133P, the sfGFP reporter fluorescence in series [3] worked out at 0.0641 ± 0.0013; in series [4] (ligand: 1 µM Pb), 0.0767 ± 0.0042; in series [4] (ligand: 30 µM Zn) it was 0.395 ± 0.036.
As to Q4A, the sfGFP reporter fluorescence is 0.0537 ± 0.0044 in series [1], 0.0555 ± 0.0018 in series [2] (ligand: 1 µM Pb) and 0.4821 ± 0.0029 in series [2] (ligand: 30 µM Zn).
Turning to D131S C134V, the sfGFP reporter fluorescence is 0.072 ± 0.005 in series [3], 0.126 ± 0.0046 in series [4] (ligand: 1 µM Pb) and 1.34 ± 0.045 in series [4] (ligand: 30 µM Zn).
In the same order, the values of D135R P143A are 0.0577 ± 0.0043, 0.0707 ± 0.0053 and 0.317 ± 0.04.
In the same order, the values of D131S P143A are 0.0606 ± 0.0013, 0.07916 ± 0.00037 and 0.373 ± 0.042.
For D131S D135A, the sfGFP reporter fluorescence in series [3] worked out at 0.0649 ± 0.0016; in series [4] (ligand: 1 µM Pb) it was 0.0893 ± 0.0049; in series [4] (ligand: 30 µM Zn), 0.459 ± 0.015.
Consider D131S D135P, for which the sfGFP reporter fluorescence is 0.0663 ± 0.0043 in series [3], 0.105 ± 0.0076 in series [4] (ligand: 1 µM Pb) and 0.547 ± 0.082 in series [4] (ligand: 30 µM Zn).
As for unchanged, the sfGFP reporter fluorescence stood at 0.0626 ± 0.0021 in series [3]; 0.0588 ± 0.0029 in series [1]; 0.0826 ± 0.03 in series [2] (ligand: 1 µM Pb); 0.722 ± 0.087 in series [2] (ligand: 30 µM Zn); 0.0729 ± 0.0052 in series [4] (ligand: 1 µM Pb); 0.487 ± 0.22 in series [4] (ligand: 30 µM Zn).
On to D131T D135Y, for which the results for the sfGFP reporter fluorescence in series [3], in series [4] (ligand: 1 µM Pb) and in series [4] (ligand: 30 µM Zn) were 0.074 ± 0.0013, 0.0933 ± 0.014 and 0.801 ± 0.026, respectively.
In the same order, the values of D131T D135A are 0.0636 ± 0.0011, 0.08075 ± 0.00021 and 0.365 ± 0.0092.
On to D131Y D135P, for which the sfGFP reporter fluorescence turned out to be 0.0677 ± 0.0011 in series [3], 0.0826 ± 0.0037 in series [4] (ligand: 1 µM Pb) and 0.272 ± 0.021 in series [4] (ligand: 30 µM Zn).
With D131Y D135A, the sfGFP reporter fluorescence worked out at 0.0654 ± 0.0021 in series [3], 0.1 ± 0.0045 in series [4] (ligand: 1 µM Pb) and 1.61 ± 0.27 in series [4] (ligand: 30 µM Zn).
As for N2A, the values for the sfGFP reporter fluorescence in series [1], in series [2] (ligand: 1 µM Pb) and in series [2] (ligand: 30 µM Zn) were 0.0517 ± 0.001, 0.0614 ± 0.0065 and 0.801 ± 0.036, respectively.
